Substitutions are numbered along the chain they refer to. Names may count otherwise.
T1: C1s in normal cynomolgus monkey serum (CMS, CompTech NCYS) (cynomolgus monkey, UniProt A0A2K5VQX9 16-685)
T1 sequence: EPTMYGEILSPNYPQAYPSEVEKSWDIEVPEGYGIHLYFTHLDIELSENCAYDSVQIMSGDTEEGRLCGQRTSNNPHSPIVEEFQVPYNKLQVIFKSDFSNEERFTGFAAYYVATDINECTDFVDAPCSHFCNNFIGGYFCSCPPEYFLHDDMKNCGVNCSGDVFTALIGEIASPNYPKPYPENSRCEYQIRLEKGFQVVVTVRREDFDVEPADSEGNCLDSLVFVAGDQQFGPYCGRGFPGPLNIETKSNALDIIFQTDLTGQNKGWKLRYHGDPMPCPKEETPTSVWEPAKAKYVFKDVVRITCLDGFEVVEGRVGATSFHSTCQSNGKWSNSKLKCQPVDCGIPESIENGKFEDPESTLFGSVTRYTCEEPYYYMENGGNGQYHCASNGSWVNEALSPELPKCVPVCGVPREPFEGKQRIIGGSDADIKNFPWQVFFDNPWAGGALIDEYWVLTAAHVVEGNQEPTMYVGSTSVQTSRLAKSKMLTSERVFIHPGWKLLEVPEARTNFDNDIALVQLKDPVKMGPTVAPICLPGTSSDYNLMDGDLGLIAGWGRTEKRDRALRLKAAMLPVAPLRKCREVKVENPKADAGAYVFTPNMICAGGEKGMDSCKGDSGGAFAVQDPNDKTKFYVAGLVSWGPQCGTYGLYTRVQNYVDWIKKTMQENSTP

T2: human C1s mutant M17 (N380H) (human, UniProt P09871 16-688)
T2 construct: The entry is the mutant itself
T2 sequence: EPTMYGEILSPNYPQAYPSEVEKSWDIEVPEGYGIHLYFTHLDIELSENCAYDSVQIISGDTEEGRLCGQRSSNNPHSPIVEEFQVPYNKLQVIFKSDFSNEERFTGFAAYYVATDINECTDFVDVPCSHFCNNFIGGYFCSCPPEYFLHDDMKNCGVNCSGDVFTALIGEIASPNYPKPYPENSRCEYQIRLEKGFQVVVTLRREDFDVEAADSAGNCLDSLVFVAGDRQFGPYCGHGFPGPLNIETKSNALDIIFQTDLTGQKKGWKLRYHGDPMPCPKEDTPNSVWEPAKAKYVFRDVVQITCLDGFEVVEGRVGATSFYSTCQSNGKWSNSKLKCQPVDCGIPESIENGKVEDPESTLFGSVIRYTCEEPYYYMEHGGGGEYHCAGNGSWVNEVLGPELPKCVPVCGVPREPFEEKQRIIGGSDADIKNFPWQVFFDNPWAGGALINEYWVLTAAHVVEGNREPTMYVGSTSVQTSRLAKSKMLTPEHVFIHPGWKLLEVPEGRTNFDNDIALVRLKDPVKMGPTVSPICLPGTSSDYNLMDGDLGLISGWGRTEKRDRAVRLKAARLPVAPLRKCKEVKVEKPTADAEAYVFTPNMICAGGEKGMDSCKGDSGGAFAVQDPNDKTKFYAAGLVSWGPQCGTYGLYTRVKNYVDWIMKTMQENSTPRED

T3: human C1s mutant M1 (M277I) (human, UniProt P09871 16-688)
T3 construct: The entry is the mutant itself
T3 sequence: T2 sequence with M277I, H380N

B1: Anti-C1s antibody 2-8 (antibody, V domains shown)
VH: EVQLQQSGAELVRPGALVKLSCKASGFNIKEYYMHWVKQRPEQGLEWIGWIDPENGDTIYDPKFQGKASITADTSSNTAYLQLSSLTSEDTAVYYCARSRLFFAYWGQGTLVTVSA
VL: DIVMTQSHKFMSTSVGDRVSFTCKASQDVRTAVDWYQQKPGQSPKLLIYSASYRYTGVPDRFTGTGSGTDFTFTISSVQAEDLAVYFCQQQYTTPYTFGGGTKLEIKT
notes: the HC/LC entries may hold it too; also called clone 2-8
B2: Anti-C1s antibody hz2-7(H1L2) (antibody, V domains shown)
VH: EVQLLESGGGLVQPGGSLRLSCAASGFTFSNYFMNWVRQAPGKGLEWVSEIRLKFTNYATHYADSVKGRFTISRDDSKSTLYLQMNSLRAEDTAVYYCTRDYGSRNGYFDYWGQGTLVTVSS
VL: DIVMTQTPLSLPVTPGEPASISCRSSKSLLHSNGNTFLYWFLQKPGQSPQLLIYRMSNLASGVPDRFSGSGSGTDFTLKISRVEAEDVGVYYCMQHLEYPYTFGGGTKLEIKR
notes: Humanized, human IgG1 / kappa; also called hz2-7(1L2)
B3: Anti-C1s antibody 2-7 (antibody, human IgG1, kappa, V domains shown)
VH: EVKLEESGGGLVPPGGSMKLSCVASGFTFSNYFMNWVRQSPEKGLEWVAEIRLKFTNYATHYAESVEGRFTISRDDSKSSVYLQMNNLRAEDTGIYYCTRDYGSRNGYFDYWGQGTTLTVSS
VL: DIVMTQAAPSVPVTPGESVSISCRSSKSLLHSNGNTFLYWFLQRPGQSPQLLIYRMSNLASGVPDRFSGSGSGTAFTLRVSRVEAEDVGIYYCMQHLEYPYTFGGGTKLEIKT
notes: the HC/LC entries may hold it too; also called clone 2-7
B4: Anti-C1s antibody hz2-8 (H1L2 G80A) (antibody, V domains shown)
VH: QVQLVQSGAEVKKPGASVKVSCKASGFNIKEYYMHWVRQAPEQGLEWMGWIDPENADTIYAQKFQGRVTITADTSTNTAYMELSSLRSEDTAVYYCARSRLFFAYWGQGTLVTVSS
VL: DIQMTQSPKSLSASVGDRVTITCRASQDVRTALDWYQQKPGQSPKLLIYSASYRYSGVPSRFSGSGSGTDFTLTISSLQPEDFATYYCQQQYTTPYTFGQGTKLEIKR
notes: Humanized variant with G80A in HC CDR2 (already in the entry), human IgG1 / kappa
B5: Anti-C1s antibody hz2-8 (H1L2 G80A/T82A) (antibody, V domains shown)
VH: B4 VH with T58A
VL: B4 VL
notes: Humanized variant with G80A and T82A in HC CDR2 (already in the entry), human IgG1 / kappa

Tests used:
[1] = molecular target: T1, C1s in normal cynomolgus monkey serum …; assay: cell-based or functional assay
[2] = molecular target: T2, human C1s mutant M17 (N380H); assay: ELISA, plate coated with human C1s mutant M17: N380H, OD450nm
Protocol: (§1) ELISA was carried out by first coating 96-well plates with 200 ng/well of full-length or truncated C1s proteins overnight. The next morning, plates were blocked with SuperBlock T20 blocking buffer (Thermo Scientific 37536) for 1 h with gentle shaking. Then, various concentrations of anti-C1s antibodies diluted in SuperBlock T20 blocking buffer were added to the plates and incubated for 1 h with gentle shaking. Mouse IgG (Sigma-Aldrich 15381) and human IgG1 (BioXCell BP0297) were used as negative controls. The plates were washed before incubating with HRP conjugated secondary antibodies diluted in SuperBlock T20 blocking buffer (goat anti-mouse IgG (H+L) cross-adsorbed secondary antibody HRP (Invitrogen G-21040) or goat anti-human IgG antibody, HRP conjugate (Millipore AP309P)) for 1 h with gentle shaking. At last, the plates were washed and color developed with ELISA liquid HRP substrate (Sigma-Aldrich), followed by stopping the reaction with addition of 1M H₂SO₄ in the same volume as the ELISA liquid substrate. Bound antibody was measured by absorbance at OD₄₅₀ₙₘ.
(§2) Binding of anti-C1s antibodies to mutants M1-M20 of human C1s was measured by ELISA as described in Example 4, and results are shown in FIGS. 6B-6U. All anti-C1s humanized variants including hz2-7(H1L2), hz2-8(H1L2 G80A) and hz2-8(H1L2 G80A/T82A) maintained strong binding properties to the majority (16 out of 20) of C1s mutants including M1 (FIG. 6B), M2 (FIG. 6C), M3 (FIG. 6D). M4 (FIG. 6E), M7 (FIG. 6H), M8 (FIG. 6I), M10 (FIG. 6K), M11 (FIG. 6L), M12 (FIG. 6M), M13 (FIG. 6N), M15 (FIG. 6P), M16 (FIG. 6Q), M17 (FIG. 6R), M18 (FIG. 6S), M19 (FIG. 6T) and M20 (FIG. 6U).

[3] = molecular target: T3, human C1s mutant M1 (M277I); assay: ELISA, plate coated with human C1s mutant M1: M277I, OD450nm
Protocol: as §1, §2

Binder | IC50, inhibition of IgM-induced C4 deposition from cynomolgus monkey serum [1] [µg/mL] | EC50 [2] [µg/mL] | IC50, inhibition of IgM-induced C4 deposition from CMS [1] [µg/mL] | IC50, inhibition of cynomolgus monkey complement-mediated lysis of EA [1] [µg/mL] | EC50 [3] [µg/mL]
B1 | ~0.5 | – | – | – | –
B2 | – | 0.004 | 0.9 | 0.8 | 0.009
B3 | ~0.3 | – | – | – | –
B4 | – | 0.005 | 0.5 | – | 0.007
B5 | – | 0.008 | 0.4 | – | 0.005

— patent US20230051715A1 (MABWELL THERAPEUTICS, published 2023)
